Data published in patent US20200270325A1 (Merck Sharp & Dohme, published 2020).
Numbered stars: 1 amine (or outer) side, 2 acyl side, 3 side chain; on linkers, the order of the positions; unused ones are H or OH. Square brackets hold non-standard residues; d marks the D form. Primed or numbered codes have the meaning given here. Side chains are listed from the residue outwards. Ends that are not written are not given here. * marks the point of attachment. Phe(4-CH2NH2) = NCc1ccc(C[C@H](N)C(=O)O)cc1; C18 diacid = O=C(O)CCCCCCCCCCCCCCCCC(=O)*; γGlu = O=C(O)[C@H](CCC(=O)[*:2])N[*:1]; Met(O2) = CS(=O)(=O)CC[C@H](N)C(=O)O; αMeD = C[C@](N)(CC(=O)O)C(=O)O; PEG2′ = not defined here; AEEA = NCCOCCOCC(=O)O; Aib = CC(C)(N)C(=O)O

B1: TP699 (peptide)
peptide: H[Aib]QGTFTSEYSKKLDARAAQDFVK([AEEA-AEEA-γGlu-C18 diacid])WL[Met(O2)]DT-NH2
modifications: N-terminus assumed
SMILES: CC(C)C[C@H](NC(=O)[C@H](CCCCN)NC(=O)[C@H](CCCCN)NC(=O)[C@H](CO)NC(=O)[C@H](Cc1ccc(O)cc1)NC(=O)[C@H](CCC(=O)O)NC(=O)[C@H](CO)NC(=O)[C@@H](NC(=O)[C@H](Cc1ccccc1)NC(=O)[C@@H](NC(=O)CNC(=O)[C@H](CCC(N)=O)NC(=O)C(C)(C)NC(=O)[C@@H](N)Cc1c[nH]cn1)[C@@H](C)O)[C@@H](C)O)C(=O)N[C@@H](CC(=O)O)C(=O)N[C@@H](C)C(=O)N[C@@H](CCCNC(=N)N)C(=O)N[C@@H](C)C(=O)N[C@@H](C)C(=O)N[C@@H](CCC(N)=O)C(=O)N[C@@H](CC(=O)O)C(=O)N[C@@H](Cc1ccccc1)C(=O)N[C@H](C(=O)N[C@@H](CCCCNC(=O)COCCOCCNC(=O)COCCOCCNC(=O)CC[C@H](NC(=O)CCCCCCCCCCCCCCCCC(=O)O)C(=O)O)C(=O)N[C@@H](Cc1c[nH]c2ccccc12)C(=O)N[C@@H](CC(C)C)C(=O)N[C@@H](CCS(C)(=O)=O)C(=O)N[C@@H](CC(=O)O)C(=O)N[C@H](C(N)=O)[C@@H](C)O)C(C)C
B2: TP681 (peptide)
peptide: H[Aib]QGTFTSDYSKYLDARAAQK([AEEA-AEEA-γGlu-C18 diacid])FVQWL[Met(O2)][αMeD]T-NH2
modifications: N-terminus assumed
SMILES: CC(C)C[C@H](NC(=O)[C@H](Cc1ccc(O)cc1)NC(=O)[C@H](CCCCN)NC(=O)[C@H](CO)NC(=O)[C@H](Cc1ccc(O)cc1)NC(=O)[C@H](CC(=O)O)NC(=O)[C@H](CO)NC(=O)[C@@H](NC(=O)[C@H](Cc1ccccc1)NC(=O)[C@@H](NC(=O)CNC(=O)[C@H](CCC(N)=O)NC(=O)C(C)(C)NC(=O)[C@@H](N)Cc1c[nH]cn1)[C@@H](C)O)[C@@H](C)O)C(=O)N[C@@H](CC(=O)O)C(=O)N[C@@H](C)C(=O)N[C@@H](CCCNC(=N)N)C(=O)N[C@@H](C)C(=O)N[C@@H](C)C(=O)N[C@@H](CCC(N)=O)C(=O)N[C@@H](CCCCNC(=O)COCCOCCNC(=O)COCCOCCNC(=O)CC[C@H](NC(=O)CCCCCCCCCCCCCCCCC(=O)O)C(=O)O)C(=O)N[C@@H](Cc1ccccc1)C(=O)N[C@H](C(=O)N[C@@H](CCC(N)=O)C(=O)N[C@@H](Cc1c[nH]c2ccccc12)C(=O)N[C@@H](CC(C)C)C(=O)N[C@@H](CCS(C)(=O)=O)C(=O)N[C@@](C)(CC(=O)O)C(=O)N[C@H](C(N)=O)[C@@H](C)O)C(C)C
B3: TP701 (peptide)
peptide: H[Aib]QGTFTSDYSKYLDERAAKDFVK([AEEA-AEEA-γGlu-C18 diacid])WL[Met(O2)]DT-NH2
modifications: N-terminus assumed
SMILES: CC(C)C[C@H](NC(=O)[C@H](Cc1ccc(O)cc1)NC(=O)[C@H](CCCCN)NC(=O)[C@H](CO)NC(=O)[C@H](Cc1ccc(O)cc1)NC(=O)[C@H](CC(=O)O)NC(=O)[C@H](CO)NC(=O)[C@@H](NC(=O)[C@H](Cc1ccccc1)NC(=O)[C@@H](NC(=O)CNC(=O)[C@H](CCC(N)=O)NC(=O)C(C)(C)NC(=O)[C@@H](N)Cc1c[nH]cn1)[C@@H](C)O)[C@@H](C)O)C(=O)N[C@@H](CC(=O)O)C(=O)N[C@@H](CCC(=O)O)C(=O)N[C@@H](CCCNC(=N)N)C(=O)N[C@@H](C)C(=O)N[C@@H](C)C(=O)N[C@@H](CCCCN)C(=O)N[C@@H](CC(=O)O)C(=O)N[C@@H](Cc1ccccc1)C(=O)N[C@H](C(=O)N[C@@H](CCCCNC(=O)COCCOCCNC(=O)COCCOCCNC(=O)CC[C@H](NC(=O)CCCCCCCCCCCCCCCCC(=O)O)C(=O)O)C(=O)N[C@@H](Cc1c[nH]c2ccccc12)C(=O)N[C@@H](CC(C)C)C(=O)N[C@@H](CCS(C)(=O)=O)C(=O)N[C@@H](CC(=O)O)C(=O)N[C@H](C(N)=O)[C@@H](C)O)C(C)C
B4: TP700 (peptide)
peptide: H[Aib]QGTFTSDYSEYLDKRAAQDFVK([AEEA-AEEA-γGlu-C18 diacid])WL[Met(O2)]DT-NH2
modifications: N-terminus assumed
SMILES: CC(C)C[C@H](NC(=O)[C@H](Cc1ccc(O)cc1)NC(=O)[C@H](CCC(=O)O)NC(=O)[C@H](CO)NC(=O)[C@H](Cc1ccc(O)cc1)NC(=O)[C@H](CC(=O)O)NC(=O)[C@H](CO)NC(=O)[C@@H](NC(=O)[C@H](Cc1ccccc1)NC(=O)[C@@H](NC(=O)CNC(=O)[C@H](CCC(N)=O)NC(=O)C(C)(C)NC(=O)[C@@H](N)Cc1c[nH]cn1)[C@@H](C)O)[C@@H](C)O)C(=O)N[C@@H](CC(=O)O)C(=O)N[C@@H](CCCCN)C(=O)N[C@@H](CCCNC(=N)N)C(=O)N[C@@H](C)C(=O)N[C@@H](C)C(=O)N[C@@H](CCC(N)=O)C(=O)N[C@@H](CC(=O)O)C(=O)N[C@@H](Cc1ccccc1)C(=O)N[C@H](C(=O)N[C@@H](CCCCNC(=O)COCCOCCNC(=O)COCCOCCNC(=O)CC[C@H](NC(=O)CCCCCCCCCCCCCCCCC(=O)O)C(=O)O)C(=O)N[C@@H](Cc1c[nH]c2ccccc12)C(=O)N[C@@H](CC(C)C)C(=O)N[C@@H](CCS(C)(=O)=O)C(=O)N[C@@H](CC(=O)O)C(=O)N[C@H](C(N)=O)[C@@H](C)O)C(C)C
B5: TP693 (peptide)
peptide: HXQGTFTSDXSKYLDARAAQDFVXWLXDT
modifications: D-Ser (s) at 2; pAF(γEγEC16) at 10; K(PEG2PEG2γEC16-OH) at 24; L-methionine sulphone (2) at 27; C-terminal amide
B6: TP679 (peptide)
peptide: H[Aib]QGTFTSDYSKYLDARAAQ[Phe(4-CH2NH2)]([AEEA-AEEA-AEEA-γGlu-C18 diacid])FVQWLLDT-NH2
modifications: N-terminus assumed
SMILES: CC(C)C[C@H](NC(=O)[C@H](Cc1ccc(O)cc1)NC(=O)[C@H](CCCCN)NC(=O)[C@H](CO)NC(=O)[C@H](Cc1ccc(O)cc1)NC(=O)[C@H](CC(=O)O)NC(=O)[C@H](CO)NC(=O)[C@@H](NC(=O)[C@H](Cc1ccccc1)NC(=O)[C@@H](NC(=O)CNC(=O)[C@H](CCC(N)=O)NC(=O)C(C)(C)NC(=O)[C@@H](N)Cc1c[nH]cn1)[C@@H](C)O)[C@@H](C)O)C(=O)N[C@@H](CC(=O)O)C(=O)N[C@@H](C)C(=O)N[C@@H](CCCNC(=N)N)C(=O)N[C@@H](C)C(=O)N[C@@H](C)C(=O)N[C@@H](CCC(N)=O)C(=O)N[C@@H](Cc1ccc(CNC(=O)COCCOCCNC(=O)COCCOCCNC(=O)COCCOCCNC(=O)CC[C@H](NC(=O)CCCCCCCCCCCCCCCCC(=O)O)C(=O)O)cc1)C(=O)N[C@@H](Cc1ccccc1)C(=O)N[C@H](C(=O)N[C@@H](CCC(N)=O)C(=O)N[C@@H](Cc1c[nH]c2ccccc12)C(=O)N[C@@H](CC(C)C)C(=O)N[C@@H](CC(C)C)C(=O)N[C@@H](CC(=O)O)C(=O)N[C@H](C(N)=O)[C@@H](C)O)C(C)C
B7: TP678 (peptide)
peptide: H[Aib]QGTFTSDYSKYLDARAA[Phe(4-CH2NH2)]([AEEA-AEEA-AEEA-γGlu-C18 diacid])DFVQWLLDT-NH2
modifications: N-terminus assumed
SMILES: CC(C)C[C@H](NC(=O)[C@H](Cc1ccc(O)cc1)NC(=O)[C@H](CCCCN)NC(=O)[C@H](CO)NC(=O)[C@H](Cc1ccc(O)cc1)NC(=O)[C@H](CC(=O)O)NC(=O)[C@H](CO)NC(=O)[C@@H](NC(=O)[C@H](Cc1ccccc1)NC(=O)[C@@H](NC(=O)CNC(=O)[C@H](CCC(N)=O)NC(=O)C(C)(C)NC(=O)[C@@H](N)Cc1c[nH]cn1)[C@@H](C)O)[C@@H](C)O)C(=O)N[C@@H](CC(=O)O)C(=O)N[C@@H](C)C(=O)N[C@@H](CCCNC(=N)N)C(=O)N[C@@H](C)C(=O)N[C@@H](C)C(=O)N[C@@H](Cc1ccc(CNC(=O)COCCOCCNC(=O)COCCOCCNC(=O)COCCOCCNC(=O)CC[C@H](NC(=O)CCCCCCCCCCCCCCCCC(=O)O)C(=O)O)cc1)C(=O)N[C@@H](CC(=O)O)C(=O)N[C@@H](Cc1ccccc1)C(=O)N[C@H](C(=O)N[C@@H](CCC(N)=O)C(=O)N[C@@H](Cc1c[nH]c2ccccc12)C(=O)N[C@@H](CC(C)C)C(=O)N[C@@H](CC(C)C)C(=O)N[C@@H](CC(=O)O)C(=O)N[C@H](C(N)=O)[C@@H](C)O)C(C)C

Columns and labels:
[1] = target: human GLP-1 receptor (GLP1R) (human, UniProt P43220 24-463); assay: cell-based or functional assay
[2] = target: human Glucagon receptor (GCGR) (human, UniProt P47871 26-477); assay: cell-based or functional assay
Chain of human Glucagon receptor (GCGR) (P47871 26-477): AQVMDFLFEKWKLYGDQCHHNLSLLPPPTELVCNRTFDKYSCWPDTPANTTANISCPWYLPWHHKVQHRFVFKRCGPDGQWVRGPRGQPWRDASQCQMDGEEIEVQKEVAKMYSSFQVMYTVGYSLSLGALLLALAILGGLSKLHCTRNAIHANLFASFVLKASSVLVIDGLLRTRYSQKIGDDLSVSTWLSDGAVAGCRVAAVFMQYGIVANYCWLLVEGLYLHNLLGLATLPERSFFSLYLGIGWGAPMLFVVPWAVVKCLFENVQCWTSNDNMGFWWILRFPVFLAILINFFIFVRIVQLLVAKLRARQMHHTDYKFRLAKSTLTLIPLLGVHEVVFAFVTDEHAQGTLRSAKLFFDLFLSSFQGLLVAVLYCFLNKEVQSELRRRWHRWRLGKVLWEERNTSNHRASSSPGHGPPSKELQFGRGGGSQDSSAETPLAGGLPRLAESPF

| Binder | GLP1R EC50 human [1] [nM] | GCGR EC50 human [2] [nM] |
| --- | --- | --- |
| B1 | > 19.8 | > 19.8 |
| H[Aib]QGTFTSDYSKYLD[Aib]RAAQDFVQWLL[Phe(4-CH2NH2)]([AEEA-AEEA-γGlu-C18 diacid])TK-{γGlu-NH2} [TP682] | 2.31 | 2.35 |
| H[Aib]QGTFTSDYSKYLDARAAQ[Phe(4-CH2NH2)]([AEEA-AEEA-γGlu-C20‑OH])FVQWLLDT-NH2 [TP585] | 0.566 | 1.13 |
| B2 | 0.15 | 0.27 |
| B3 | 0.18 | > 4.9 |
| B4 | 0.35 | > 4.9 |
| B5 | > 4.9 | 1.1 |
| B6 | 0.18 | 0.13 |
| B7 | 0.91 | 0.25 |
| H[Aib]QGTFTSDYSKYLDARAAQDFVK([PEG2′-PEG2′-PEG2′-γGlu-C18‑OH])WL[Met(O2)]DT-NH2 [TP680] | 0.19 | 0.59 |
| H[Aib]QGTFTSDYSKYLD[Aib]RAAQDFVQWLLK([AEEA-AEEA-γGlu-C18 diacid])TK-{γGlu-NH2} [TP683] | 0.62 | 4.97 |
